One block for each binder: values may come before it.
What was measured:
[1] = target: T1, human MSLN-R2-his protein (human, UniProt Q13421 391-486); test: ELISA on coated antigen, antibody 1 nM
T1 construct: Self-made in HEK293E cells; also called human MSLN-R2 protein; hMSLN-R2-his; not shown: His tag

[2] = target: T2, human MSLN-R3-his protein (human, UniProt Q13421 487-598); test: ELISA on coated antigen, antibody 1 nM
T2 construct: Self-made in HEK293E cells; also called human MSLN-R3 protein; hMSLN-R3-his; not shown: His tag

[3] = target: T3, human MSLN-R3-3 polypeptide (human); test: ELISA on coated antigen, antibody 1 nM
T3 construct: also called human MSLN-R3-3 protein; hMSLN-R3-3
Procedure: (§1) The plate was sealed with a plastic film and incubated at 4° C. overnight. The next day, the plate was washed twice with PBST, and a blocking buffer [PBS+2% (w/w) BSA] was added for blocking at room temperature for 2 h. The blocking buffer was discarded, and a chimeric antibody or negative control antibody serially diluted from 100 nM was added at 50 μL/well. After incubation at 37° C. for 2 h, the plate was washed 3 times with PBST. […] After incubation at 37° C. for 2 h, the plate was washed 5 times with PBST. A TMB substrate was added at 50 μL/well for incubation at room temperature for 5-10 min, and then a stop solution (1.0 N HCl) was added at 50 μL/well.

[4] = target: T1, human MSLN-R2-his protein; test: ELISA on coated antigen, antibody 10 nM
Procedure: as §1

[5] = target: T2, human MSLN-R3-his protein; test: ELISA on coated antigen, antibody 10 nM
Procedure: as §1

[6] = target: T3, human MSLN-R3-3 polypeptide; test: ELISA on coated antigen, antibody 10 nM
Procedure: as §1

[7] = target: T1, human MSLN-R2-his protein; test: ELISA on coated antigen, antibody 0.1 nM
Procedure: as §1

[8] = target: T1, human MSLN-R2-his protein; test: ELISA on coated antigen, antibody 100 nM
Procedure: as §1

[9] = target: T2, human MSLN-R3-his protein; test: ELISA on coated antigen, antibody 0.1 nM
Procedure: as §1

[10] = target: T2, human MSLN-R3-his protein; test: ELISA on coated antigen, antibody 100 nM
Procedure: as §1

[11] = target: T3, human MSLN-R3-3 polypeptide; test: ELISA on coated antigen, antibody 0.1 nM
Procedure: as §1

[12] = target: T3, human MSLN-R3-3 polypeptide; test: ELISA on coated antigen, antibody 100 nM
Procedure: as §1

[13] = target: T1, human MSLN-R2-his protein; test: ELISA on coated antigen, antibody 0.01 nM
Procedure: as §1

[14] = target: T2, human MSLN-R3-his protein; test: ELISA on coated antigen, antibody 0.01 nM
Procedure: as §1

[15] = target: T3, human MSLN-R3-3 polypeptide; test: ELISA on coated antigen, antibody 0.01 nM
Procedure: as §1

[16] = target: T1, human MSLN-R2-his protein; test: ELISA on coated antigen, antibody 0.001 nM
Procedure: as §1

[17] = target: T2, human MSLN-R3-his protein; test: ELISA on coated antigen, antibody 0.001 nM
Procedure: as §1

[18] = target: T3, human MSLN-R3-3 polypeptide; test: ELISA on coated antigen, antibody 0.001 nM
Procedure: as §1

[19] = target: T1, human MSLN-R2-his protein; test: ELISA on coated antigen, antibody 0.0001 nM
Procedure: as §1

[20] = target: T2, human MSLN-R3-his protein; test: ELISA on coated antigen, antibody 0.0001 nM
Procedure: as §1

[21] = target: T3, human MSLN-R3-3 polypeptide; test: ELISA on coated antigen, antibody 0.0001 nM
Procedure: as §1

[22] = target: T1, human MSLN-R2-his protein; test: ELISA on coated antigen, no antibody (column none)
Procedure: as §1

[23] = target: T2, human MSLN-R3-his protein; test: ELISA on coated antigen, no antibody (column none)
Procedure: as §1

[24] = target: T3, human MSLN-R3-3 polypeptide; test: ELISA on coated antigen, no antibody (column none)
Procedure: as §1

[25] = target: T4, human MSLN protein endogenously expressed on OVCAR3 tumor cells (human, UniProt Q13421 296-598); test: FACS on OVCAR3 cells;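 also: flow cytometry of chimeric antibody binding to OVCAR3 cells, 2 h on ice, read as cellular mean fluorescence intensity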
T4 construct: whole, on cells; endogenous expression on a tumor cell line; also called human mesothelin
Procedure: (§2) The desired cells were expanded to the logarithmic growth phase in a T-75 cell culture flask. […] After the cells from the previous step were subjected to cell counting, the cell pellet was resuspended to 2×10⁶ cells/mL in a blocking buffer of [PBS+2% (w/w) BSA] and added into a 96-well FACS reaction plate at 50 μL/well. A chimeric antibody (a sample to be tested) was added at 50 μL/well, and the plate was incubated on ice for 2 h. […] After the plate was centrifuged and washed 5 times with a PBST buffer, assay and analysis were performed by FACS (FACS CantoII, purchased from BD). Data analysis was performed by software (Flowjo) to obtain the mean fluorescence intensity (MFI) of the cells.

[26] = target: T5, human MSLN-R3 protein expressed on HEK293T cells (HEK293T-hMSLN-R3) (human, UniProt Q13421 487-606); test: FACS on HEK293T-hMSLN-R3 cells;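 also: chimeric antibodies incubated with cells on ice for 2 h, binding read by flow cytometry as mean fluorescence intensity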
T5 construct: C-terminal limit uncertain
Procedure: as §2

[27] = target: T6, human MSLN-FL-his protein (human, UniProt Q13421 296-580); test: competitive ELISA; row F8-4.5
T6 construct: made in HEK293E cells, purified on nickel column; also called hMSLN-FL-his; human MSLN full-length protein; not shown: His tag

[28] = target: T6, human MSLN-FL-his protein; test: competitive ELISA; row F8-7.5
Procedure: (§3) In order to identify antigen-binding sites of antibodies, MSLN chimeric antibodies were grouped using competitive ELISA.
(§4) The chimeric antibodies were diluted to 2 μg/mL with PBS and allowed to coat 96-well high-adsorption ELISA plates at 50 μL/well. After the plates were coated at 4° C. overnight, 250 μL of a blocking buffer (PBS containing 2% (w/w) BSA) was added for two hours of blocking at room temperature. 40 μg/mL of the antibodies to be tested were added, and then the human MSLN-FL-His protein with an EC₈₀ concentration corresponding to each of the antibodies to be tested was added for incubation for 2 h. The plates were washed 5 times with PBS, an HRP-labeled anti-His secondary antibody (purchased from Genescript, Cat. No. A00612) was then added for incubation for 1 h, and the plates were washed 5 times again. A TMB substrate was added at 50 μL/well, and after 10 minutes of incubation at room temperature, a stop solution (1.0 M HCl) was added at 50 μL/well. OD₄₅₀ nm values were read using an ELISA plate reader (Insight, purchased from PerkinElmer), and the competition rate between the antibodies was calculated according to the OD₄₅₀ nm values using a formula.

[29] = target: T6, human MSLN-FL-his protein; test: competitive ELISA; row Tab021
Procedure: as §3, §4

[30] = target: T6, human MSLN-FL-his protein; test: competitive ELISA; row Tab142
Procedure: as §3, §4

[31] = target: T6, human MSLN-FL-his protein; test: competitive ELISA; row F8-13.8
Procedure: as §3, §4

[32] = target: T6, human MSLN-FL-his protein; test: competitive ELISA; row F8-18.9
Procedure: as §3, §4

[33] = target: T6, human MSLN-FL-his protein; test: competitive ELISA; row F8-27.1
Procedure: as §3, §4

[34] = target: T6, human MSLN-FL-his protein; test: competitive ELISA; row F8-5.15
Procedure: as §3, §4

[35] = target: T6, human MSLN-FL-his protein; test: competitive ELISA; row F8-12.13
Procedure: as §3, §4

[36] = target: T6, human MSLN-FL-his protein; test: competitive ELISA; row F8-15.19
Procedure: as §3, §4

[37] = target: T6, human MSLN-FL-his protein; test: competitive ELISA; row F8-19.21
Procedure: as §3, §4

[38] = target: T6, human MSLN-FL-his protein; test: competitive ELISA; row F8-31.22
Procedure: as §3, §4

[39] = target: T6, human MSLN-FL-his protein; test: SPR (Biacore), antibody captured on Protein A chip;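 also: flow cell at 25 °C, antigen injected for 240 s at five concentrations from 200 nM downward, dissociation followed up to 600 s, double-referenced, fitted with Langmuir 1:1 model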
Procedure: The flow cell was set at 25° C. The sample block was set at 16° C. Both were pretreated with the running buffer. In each cycle, first, the antibody to be tested was captured using the Protein A chip, and then a single concentration of human MSLN-FL-his protein was injected. […] The association was determined by injecting different concentrations of human MSLN-FL-his in solution for 240 s on end, wherein the flow rate was 30 μL/min, and the protein was diluted in a 1:1 dilution ratio from 200 nM (see detailed results for actual concentrations tested) to obtain 5 concentrations in total. The dissociation phase was monitored for up to 600 s and triggered by switching from the sample solution to the running buffer. The surface was regenerated by washing with 10 mM glycine solution (pH 1.5) at a flow rate of 30 μL/min for 30 s. The difference in bulk refractive index was corrected by subtracting the responses obtained from the goat anti-human Fc surface. Blank injections were also subtracted (=double reference). To calculate the apparent KD and other kinetic parameters, the Langmuir 1:1 model was used.

T5 sequence (Q13421 495-614): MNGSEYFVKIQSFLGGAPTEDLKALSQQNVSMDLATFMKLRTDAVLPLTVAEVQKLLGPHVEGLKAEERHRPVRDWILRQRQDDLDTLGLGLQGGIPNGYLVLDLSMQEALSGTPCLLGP
T1 sequence (Q13421 other isoform, or with tags, fused parts or gaps): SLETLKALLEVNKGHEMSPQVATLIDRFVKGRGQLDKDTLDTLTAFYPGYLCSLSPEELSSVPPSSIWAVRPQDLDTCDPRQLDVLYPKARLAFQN
T6 sequence (Q13421 other isoform, or with tags, fused parts or gaps): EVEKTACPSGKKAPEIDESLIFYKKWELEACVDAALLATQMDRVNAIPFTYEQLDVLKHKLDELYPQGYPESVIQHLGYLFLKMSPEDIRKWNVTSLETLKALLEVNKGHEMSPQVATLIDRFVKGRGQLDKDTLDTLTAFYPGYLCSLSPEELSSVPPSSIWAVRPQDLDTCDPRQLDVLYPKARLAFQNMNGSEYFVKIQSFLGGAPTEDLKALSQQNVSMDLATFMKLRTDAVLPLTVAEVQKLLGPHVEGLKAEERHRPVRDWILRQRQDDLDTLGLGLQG
T2 sequence (Q13421 495-606): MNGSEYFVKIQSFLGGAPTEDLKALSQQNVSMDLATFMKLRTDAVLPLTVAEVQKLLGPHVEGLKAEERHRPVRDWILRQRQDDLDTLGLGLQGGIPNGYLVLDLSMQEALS
T4 sequence (Q13421 other isoform, or with tags, fused parts or gaps): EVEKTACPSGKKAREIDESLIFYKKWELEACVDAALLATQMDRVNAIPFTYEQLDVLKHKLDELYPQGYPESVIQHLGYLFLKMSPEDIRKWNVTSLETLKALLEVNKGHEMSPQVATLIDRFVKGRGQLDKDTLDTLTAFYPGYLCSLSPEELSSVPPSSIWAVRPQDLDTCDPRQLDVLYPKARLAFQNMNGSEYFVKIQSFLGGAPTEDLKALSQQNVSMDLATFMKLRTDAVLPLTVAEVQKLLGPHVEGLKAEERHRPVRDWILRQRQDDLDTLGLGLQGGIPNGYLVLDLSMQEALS

B1: S009-F2.16.10 (antibody, human IgG1, kappa, V domains shown)
VH: QVQLQQPGAELIKPGASVKLSCKASGYTFTSYWMHWVKQRPGQGLEWIGIIHPNIGSTNYNERFKSKATLTVDKSSSTAYMQLSSLTSEDSAVYYCARRSSNYGDWYFDVWGTGTTVTVSS
VL: DIVMTQSHRFMSTSVGDRVSITCKASQDVGTSVAWYQQKPGQSPKLLIYWASTQHTGVPDRFTGSGSGTDFTLTINNVQSEDLLDYFCQQYSSYPLTFGAGTKLELKR
notes: Human-murine chimeric antibody: murine VH/VL on human IgG1 heavy and kappa light constant regions
OD450 [1]: 0.05 OD450 | OD450 [2]: 0.05 OD450 | OD450 [3]: 0.05 OD450 | OD450 [4]: 0.05 OD450 | OD450 [5]: 0.05 OD450 | OD450 [6]: 0.05 OD450 | OD450 [7]: 0.05 OD450 | OD450 [8]: 0.05 OD450 | OD450 [9]: 0.05 OD450 | OD450 [10]: 0.06 OD450 | OD450 [11]: 0.05 OD450 | OD450 [12]: 0.05 OD450 | OD450 [13]: 0.05 OD450 | OD450 [14]: 0.05 OD450 | OD450 [15]: 0.05 OD450 | OD450 [16]: 0.05 OD450 | OD450 [17]: 0.05 OD450 | OD450 [18]: 0.05 OD450 | OD450 [19]: 0.05 OD450 | OD450 [20]: 0.05 OD450 | OD450 [21]: 0.05 OD450 | OD450 [22]: 0.06 OD450 | OD450 [23]: 0.06 OD450 | OD450 [24]: 0.05 OD450

B3: S009-F2.13.3 (antibody, human IgG1, kappa, V domains shown)
VH: QVQLQQSGAELMKPGASVKLSCKATGYTFTGYWIEWVKQRPGHGLEWIGEILPGSGSTNYNEKFKGKATFTADTSSNTAYMQLSSLTTEDSAIYYCARAGAWFAYWGQGTLVTVSA
VL: QIVLTQSPAIMSASLGERVTMTCTASSSVSSSYLHWYQQKPGSSPKLWTYSTSNLASGVPARFSGSGSGTSYSLTISSMEAEDAATYYCHQYHRSPWTFGGGTKLEIKR
notes: as for B1
OD450 [1]: 0.05 OD450 | OD450 [2]: 0.05 OD450 | OD450 [3]: 0.05 OD450 | OD450 [4]: 0.06 OD450 | OD450 [5]: 0.06 OD450 | OD450 [6]: 0.07 OD450 | OD450 [7]: 0.05 OD450 | OD450 [8]: 0.07 OD450 | OD450 [9]: 0.05 OD450 | OD450 [10]: 0.06 OD450 | OD450 [11]: 0.05 OD450 | OD450 [12]: 0.06 OD450 | OD450 [13]: 0.05 OD450 | OD450 [14]: 0.05 OD450 | OD450 [15]: 0.05 OD450 | OD450 [16]: 0.05 OD450 | OD450 [17]: 0.06 OD450 | OD450 [18]: 0.05 OD450 | OD450 [19]: 0.06 OD450 | OD450 [20]: 0.05 OD450 | OD450 [21]: 0.05 OD450 | OD450 [22]: 0.06 OD450 | OD450 [23]: 0.06 OD450 | OD450 [24]: 0.05 OD450

B5: S009-F2.17.3 (antibody, human IgG1, kappa, V domains shown)
VH: QVQLQQPGTELVTPGASVKLSCKASGYSFTSYWMHWVKQRPGQGLEWIGNINPSNGDTFYNEKFKNKATLTVDKSSSTAYMQLSSLTSEDSAVYYCARGWLRDYWGQGTTLTVSS
VL: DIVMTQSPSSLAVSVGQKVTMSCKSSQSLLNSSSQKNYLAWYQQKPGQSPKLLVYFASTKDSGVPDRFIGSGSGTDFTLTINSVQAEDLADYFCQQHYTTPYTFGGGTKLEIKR
notes: as for B1
OD450 [1]: 0.05 OD450 | OD450 [2]: 0.29 OD450 | OD450 [3]: 0.05 OD450 | OD450 [4]: 0.05 OD450 | OD450 [5]: 1.19 OD450 | OD450 [6]: 0.05 OD450 | OD450 [7]: 0.05 OD450 | OD450 [8]: 0.06 OD450 | OD450 [9]: 0.07 OD450 | OD450 [10]: 2.3 OD450 | OD450 [11]: 0.05 OD450 | OD450 [12]: 0.05 OD450 | OD450 [13]: 0.05 OD450 | OD450 [14]: 0.05 OD450 | OD450 [15]: 0.05 OD450 | OD450 [16]: 0.05 OD450 | OD450 [17]: 0.05 OD450 | OD450 [18]: 0.05 OD450 | OD450 [19]: 0.05 OD450 | OD450 [20]: 0.05 OD450 | OD450 [21]: 0.05 OD450 | OD450 [22]: 0.06 OD450 | OD450 [23]: 0.06 OD450 | OD450 [24]: 0.05 OD450

Other lines, results leading:

EC50 [25]: 4.08 nM | Maximum mean fluorescence intensity [25]: 4920 | Maximum mean fluorescence intensity [26]: 98 | binding result [26]: no binding | competition rate [27]: 29.6% | competition rate [28]: -148% | competition rate [29]: 1.09% | competition rate [30]: 15.3% | competition rate [31]: 7.5% | competition rate [32]: 8.9% | competition rate [33]: 39.7% | competition rate [34]: 96.8% | competition rate [35]: 79.2% | competition rate [36]: 82.2% | competition rate [37]: 25.5% | competition rate [38]: 79% | Kd [39]: 27.4 nM | koff [39]: 0.017 s⁻¹ | kon [39]: 620000 M⁻¹ s⁻¹
B2: S009-F8-5.15 (antibody, human IgG1, kappa, V domains shown)
VH: QVQLQQPGTELVKPGASVKLSCKASGYTFTSYWMHWVKQRPGQGLEWIGHSNPSNGGTNYNEKFKSKATLTVDKSSSTAYMQLSSLTSEDSAVYYCARWVRGSNYEYFDVWGTGTTVTVSS
VL: DIVMTQSQKFMSTTVGDRVSIICKASQNVGSAVAWCQQKPGQSPKLLIYSASNRYTGVPDRFTGSGSGTDFTLTISNMQSEDLADYFCQQYSSYPLTFAGGTKLEIKR
notes: human-murine chimeric antibody, human IgG1/kappa constant regions

EC50 [25]: 0.64 nM | Maximum mean fluorescence intensity [25]: 7750 | Maximum mean fluorescence intensity [26]: 189 | binding result [26]: no binding | competition rate [27]: -2.53% | competition rate [28]: 18.1% | competition rate [29]: 10.3% | competition rate [30]: 12.9% | competition rate [31]: 5.21% | competition rate [32]: 0.11% | competition rate [33]: 11.7% | competition rate [34]: 86.5% | competition rate [35]: 64.8% | competition rate [36]: 83.2% | competition rate [37]: 16.3% | competition rate [38]: 69.3% | Kd [39]: 87.6 nM | koff [39]: 0.0276 s⁻¹ | kon [39]: 315000 M⁻¹ s⁻¹
B4: S009-F8-31.22 (antibody, human IgG1, kappa, V domains shown)
VH: EVQLVESGGDLVKPGGSLKLSCAASGFTFSTYGMSWVRQTPDKRLEWVATISSGGSYTYYPDSLKGRFTISRDNAKNTLYLQMSSLKSEDTAMYYCARHEGYYYGKDYWGQGTTLTVSS
VL: DIVLTQSPATLSVTPGDSVSLSCRASHSISNNLHWYQQKSHESPRLLIKYASQSISGIPSKFSGSGSGTDFTLSINSVETEDFGMYFCQQTNSWPLTFGAGTKLELKR
notes: as for B2

Reference: patent US20250250357A1 (NANJING ZAIMING PHARMACEUTICAL, published 2025)
